This is an account of results in article PMC3100292 (PLoS ONE, 2011).

The target of experiment [1] is PDlim2 fused with the GAL4 DNA-binding domain (pBind-PDlim2) (human) (UniProt Q96JY6). As to the kind of experiment: two-hybrid.
The target in the next experiment is YC-PDlim2 (human) (UniProt Q96JY6). As to the kind of experiment: split reporter (BiFC, NanoBiT).
In experiment [2] the target is T1, PDlim2 PDZ domain (residues 1-83) (human, UniProt Q96JY6 1-83).
T1 construct: also called PDZ region (1-83) of PDlim2
T1 sequence (looked up): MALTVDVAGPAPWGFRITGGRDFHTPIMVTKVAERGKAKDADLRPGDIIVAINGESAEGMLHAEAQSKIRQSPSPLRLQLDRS
Briefly: crystal structure. The following applies: both partners purified.

Molecule “HN12-NS1 fused with the VP16 transcription activation domain (pACT-NS1) (natural protein)” yielded a relative luciferase activity (firefly/Renilla) in experiment [1] of 160 RLU. Regarding YN-HN12-NS1 wt (natural protein), in the experiment with YC-PDlim2 (human), the mean fluorescence intensity (MFI) is 1120 and the percent of cells in the high fluorescence zone was 10.9%. In the case of TIESEV [C-terminal hexapeptide of HN12-NS1 (TIESEV)], the binding result in experiment [2] is “binds”.
